{"source": "patent US20190225662A1", "target": "GABABR1a on mouse hippocampal neurons (cultures and slices) (mouse), Q9WV18", "sequence (Q9WV18 20-960)": "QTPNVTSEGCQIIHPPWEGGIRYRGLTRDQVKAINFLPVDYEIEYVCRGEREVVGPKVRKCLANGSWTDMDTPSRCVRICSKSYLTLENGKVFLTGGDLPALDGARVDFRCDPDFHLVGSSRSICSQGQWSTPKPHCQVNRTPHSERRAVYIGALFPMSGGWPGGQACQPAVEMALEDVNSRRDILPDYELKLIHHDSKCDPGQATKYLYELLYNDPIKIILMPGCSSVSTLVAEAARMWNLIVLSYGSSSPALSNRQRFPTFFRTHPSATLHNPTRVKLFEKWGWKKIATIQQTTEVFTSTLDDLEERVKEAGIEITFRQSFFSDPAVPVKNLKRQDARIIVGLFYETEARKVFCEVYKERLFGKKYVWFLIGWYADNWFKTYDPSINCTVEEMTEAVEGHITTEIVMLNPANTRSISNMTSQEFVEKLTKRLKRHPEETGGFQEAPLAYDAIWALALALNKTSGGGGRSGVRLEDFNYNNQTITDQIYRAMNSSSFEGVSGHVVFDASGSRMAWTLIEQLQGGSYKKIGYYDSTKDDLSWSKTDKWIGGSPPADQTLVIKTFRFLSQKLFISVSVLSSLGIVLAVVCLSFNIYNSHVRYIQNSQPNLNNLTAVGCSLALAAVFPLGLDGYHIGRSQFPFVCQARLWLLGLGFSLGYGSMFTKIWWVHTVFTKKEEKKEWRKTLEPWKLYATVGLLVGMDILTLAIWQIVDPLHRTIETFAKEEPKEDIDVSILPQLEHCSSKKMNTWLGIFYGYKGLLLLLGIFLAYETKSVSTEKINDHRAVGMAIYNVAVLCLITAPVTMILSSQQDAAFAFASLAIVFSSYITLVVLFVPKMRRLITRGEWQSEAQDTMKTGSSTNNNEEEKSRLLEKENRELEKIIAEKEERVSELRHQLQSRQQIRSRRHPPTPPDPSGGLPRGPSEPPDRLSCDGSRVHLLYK", "assay": "cell-based or functional assay"}
{"binder": "sAPPα (Fc cleaved), P12023 18-687 (ligand) LEVPTDGNAGLLAEPQIAMFCGKLNMHMNVQNGKWESDPSGTKTCIGTKEGILQYCQEVYPELQITNVVEANQPVTIQNWCKRGRKQCKTHTHIVIPYRCLVGEFVSDALLVPDKCKFLHQERMDVCETHLHWHTVAKETCSEKSTNLHDYGMLLPCGIDKFRGVEFVCCPLAEESDSVDSADAEEDDSDVWWGGADTDYADGGEDKVVEVAEEEEVADVEEEEADDDEDVEDGDEVEEEAEEPYEEATERTTSTATTTTTTTESVEEVVRVPTTAASTPDAVDKYLETPGDENEHAHFQKAKERLEAKHRERMSQVMREWEEAERQAKNLPKADKKAVIQHFQEKVESLEQEAANERQQLVETHMARVEAMLNDRRRLALENYITALQAVPPRPHHVFNMLKKYVRAEQKDRQHTLKHFEHVRMVDPKKAAQIRSQVMTHLRVIYERMNQSLSLLYNVPAVAEEIQDEVDELLQKEQNYSDDVLANMISEPRISYGNDALMPSLTETKTTVELLPVNGEFSLDDLQPWHPFGVDSVPANTENEVEPVDARPAADRGLTTRPGSGLTNIKTEEISEVKMDAEFGHDSGFEVRHQK", "values": [{"measurement": "reduction of the frequency of miniature excitatory postsynaptic currents (mEPSCs), 250 nM sAPPα, primary hippocampal neurons", "value": 39, "unit": "%"}, {"measurement": "reduction of the frequency of miniature inhibitory postsynaptic currents (mIPSCs), 250 nM sAPPα, primary hippocampal neurons", "value": 44, "unit": "%"}, {"measurement": "reduction of total presynaptic strength (S=ΔF×D), FM1-43 synaptic vesicle recycling, cultured hippocampal neurons", "value": 57, "unit": "%"}, {"measurement": "reduction on mIPSC amplitude", "value": 14, "unit": "%"}]}
